The nanobody polyreactivity screen of Harvey et al. (2022)

Assay: yeast display, Sf9 membrane polyspecificity reagent, FACS + sequencing; frameworks hold sequencing errors
Procedure, shortened: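 Synthetic nanobody libraries on Saccharomyces cerevisiae BJ5465 were galactose-induced for 36–48 hours, stained 1 hour at 4 °C with 10% biotinylated, detergent-solubilized Sf9 membrane reagent and enriched on streptavidin microbeads. FACS then separated cells into low and high (top ~1%) gates by anti-HA (expression) and streptavidin (reagent binding) fluorescence. Genes were colony-PCR amplified, MiSeq 2 × 250 sequenced and CDR-length filtered. A clone's polyreactivity label is that of its gate of origin.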

Row | Sequence | polyreactivity (PSR sort gate)
1 | QVQLQESGGGLVQAGGSLRLSCAASGTISPLPAMGWYRQAPGKEREFVAGIDTGAITNYADSVKGRFTISRDNAKNTVYLQMNSLKPEDTAVYYCAADLFLDGSSQYAPNWWPDGWNTYRLLGGYWGQGTQVTVSS | low polyreactivity
2 | QVQLQESGGGLVQAGGSLRLSCAASGTISPLPAMGWYRQAPGKEREFVAGIDTGAITNYADSVKGRFTISRDNAKNTVYLQMNSLKPEDTAVYYCAVFPAAYDYYERYYTYWGQGTQVTVSS | high polyreactivity
3 | QVQLQESGGGLVQAGGSLRLSCAASGTISPLPAMGWYRQAPGKEREFVAGIDTGAITNYADSVKGRFTISRDNAKNTVYLQMNSLKPVDTAVYYCAVFPAAYDYYERYYTYWGQGTQVTVSS | low polyreactivity
4 | QVQLQESGGGLVQAGGSLRLSCAASGTISQEDWKGWYRQAPGKEREFVAAIGLGSNTNYADSLKGRFTISRDNAKNTVYLQMNSLKQEDTAVYYCAVSVWQYSDHVYRGQGTQVTVSS | low polyreactivity
5 | QVQLQESGGGLVQAGGSLRLSCAASGTISVHASMGWYRQAPGKERELVAGITDGANTYYADSVKGRFTISRDNSKNTVYLQMNSLKPEDTAVYYCAAYYGTEVHFTYWGQGTQVTVSS | low polyreactivity
6 | QVQLQESGGGLVQAGGSLRLSCAASGTISYAPHMGWYRQAPGKERELVAGITIVGTTYYADSVKGRFTISRDNAKNTVYLQMNSLSPGDTAVYYCAAHSEQYTPFYYWGQGTQVTVSS | low polyreactivity
7 | QVQLQESGGGLVQAGGSLRLSCAASGTITVLYKMGWFRQAPGKEREFFASINYGTSTYYADSVKGRFTVSRDSAKNTVYLQMISLKPEDTAVYYGAAAYRWQDVYRYWGQVTQVTVSS | low polyreactivity
8 | QVQLQESGGGLVQAGGSLRLSCAASGTITVLYKMGWFRQAPGKEREFVASINYGTSTYYADSVKGRFTVSRDSAKNSVYLQMNSLKPEDTAVYYCAAAYRWQDVYRYWGQGTQVTVSS | low polyreactivity
9 | QVQLQESGGGLVQAGGSLRLSCAASGYISHADEMGWYRQAPGKDHELVASISNGGSTNYADSVKGRFTISRDHAKNTVYLQMNSLNSEDTAVYYCAAWTGQVDIHYYWGQGTQVTVSS | low polyreactivity
10 | QVQLQESGGGLVQAGGSLRLSCAASGYISHADEMGWYRQAPGKEHELVASISNGGSTNYADSVKGRFTISRDNAKNPVNLQMNSLKSEDTAVYYCAALTGQVAIHYYWGQGTQVTVSS | low polyreactivity
11 | QVQLQESGGGLVQAGGSLRLSCAASGYISSWYPMGWYRQAPGKEREFVATIAPRATTYYADSVKGRFTISRDYAKNTVYLQMNSLKPEDTAVYYCAAGPENNDVYSYWGQGTQVTVSS | low polyreactivity
12 | QVQLQESGGGLVQAGGSLRLSCAASGYISTFSSEMGWYRQAPGKERELVASIAPGCTTSYADSVKGRFTISRDNAKNTVYLQMNSLKPEDTAVYYCAVDYTVPASFGYWGQGTQVTVSS | high polyreactivity
13 | QVQLQESGGGLVQAGGSLRLSCAASGYISWYSEMGWYRQAPGKEREFVATITCGTTTNYAVSVKGRFTISRDNAKNTVYLQKNSLKPEDTAVYYCAVHDARHYEFDYWGQGTQVTVSS | high polyreactivity
14 | QVQLQESGGGLVQAGGSLRLSCAASSNNSTLDVKGWYRQAPGKEREFVASIGSGGITNYADSVKGRFTISRDNAKNTVYLQMNSLKPEDTAVYYCAVLNQAYTDLIYWGQGTQVTVSS | high polyreactivity
15 | QVQLQESGGGLVQAGGSLRLSCAESGSISRYYDMGWYRQAPGKEREFVAGISGGAITYYADSVKGRFTISRDNAKNTVYLQMNSLKPEDTAVYYCAADTGVYQYHSYWGQGTQVTVSS | low polyreactivity
16 | QVQLQESGGGLVQAGGSLRLSCAESGTIFRISDMGSYRQAPGKEREFVASITYGANTYYADSGKGRFTISRDNAKNTVYLQMNSLKPEDTAVYYCAVPPVKETILDYWGQGTQVTVCS | low polyreactivity
17 | QVQLQESGGGLVQAGGSLRLSCASSGSISGPHVMGWYRQAPGKEREFVAAINVGANTYYADNVKGRFTISRDNAKNTVYLQMNSLKPEDTAVYYCAAVYYGDIGHEYWGQGTQVTVSC | low polyreactivity
18 | QVQLQESGGGLVQAGGSLRLSCASSGTISPLPAMGWYRQAPGKEREYVAGIDTGAITNYADSVKGRFTISRDNAKNTVYLQMNSLQPEDTAVYYCAVFPAAYDYYESYYTYWGQGTQVTVSS | low polyreactivity
19 | QVQLQESGGGLVQAGGSLRLSCAVSGTIFFPLDMGWYRQAPGRELEYVAAIAEGTSTYYADSVKGRFTISRDNAKNTVYPQMYSLKPEDTAVYYCAAYRSTPQQFHYWGQGTQVTVSS | high polyreactivity
20 | QVQLQESGGGLVQAGGSLRLSCEASCYISDVNDMGWYRQAPGKEREFVAGFGYGGITNYADSVKGRFTISRDNAKNTVYLQMNSLKPKDSAVYNCAVHWGPDRGLYYWGQGTQVTVSS | high polyreactivity
21 | QVQLQESGGGLVQAGGSLRMSCAARGTIFWQWAMGWYCQAPGKERELVASISSGGTTYHADSVKGRFTISRDNAKNTVYLQMNSLKPEDTAVYYCNAPNWSVAYVYITQEMDYWGQGTQVTVSS | low polyreactivity
22 | QVQLQESGGGLVQAGGSLRMSCASSGTIFRISDMGSYRQAPGKDSEFVAAITYGANTYYADSGKGRFTISRDNAKNTVYLQMNSLKPEDTAVYYCAVPPVKETILDYWGQGTQVTVSS | low polyreactivity

Row | Sequence | polyreactivity (PSR sort gate)
23 | QVQLQESGGGLVQAGGSLRPRCAPAGTIFLSVNMGWYRHAPGEEREFVASITQGATTNYADSLIGRFTISRDNAKNTVYLQMNCQKPEDTAVYYCAAYPRFYGGKYGEYGYWGQGTQVTVSS | high polyreactivity
24 | QVQLQESGGGLVQAGGSLRPSCAASGSISDGVPMGWYRQAPGEERELVATTVLGATTNYADSVKGRFTISRGNAKYTVYLQMNSLKPEETAVYYCAAPLRYDKGFSYWGQGTQVTVSS | low polyreactivity
25 | QVQLQESGGGLVQAGGSLRQSCAASGSIFKVVDMGLYRQAPAKEREFVATIGEGGNTYYADSVKGRFTISRDNAKNTVYLQMNSLKPEDTAVYFYAVVLGSSYSYTYWGQGTQVTVSS | low polyreactivity
26 | QVQLQESGGGLVQAGGSLRQSCASSGYIFPYNSMGWYRQAPGKERGLVACIAAGTTTNYADSVKGRFTISRDNAKNTVYLQMNSLKPEDAAVYYCAALNAFNTGHWYWGQGTQVTVSS | low polyreactivity
27 | QVQLQESGGGLVQAGGSLRQSCEASGYIFPYYSMGWYRQAPGKERGLVACIAAGTTTNYADSVKVRFTISRDNAKNTVYLQMNSLKPEDAAVYYCAALNAFNPGHWYWGQGSQVTVSS | low polyreactivity
28 | QVQLQESGGGLVQAGGSLRQSYAASGYIFPSLAMGWYRQAPGKEREFVAAIGRGSTNNYADSVKGRFTISRDNAKNTAFQHMKSLKPEDTAVYYCAAAASPLTRHLYWGQGTQVSVSS | low polyreactivity
29 | QVQLQESGGGLVQAGGSLRQSYAASGYIFPSLAMGWYRQAPGKEREFVAAIGRGSTNNYADSVKGRFTISRDNAKNTAYLQMNSLKPEDTAVYYCAAAASPLNRHLYWGQGTQVTVSS | low polyreactivity
30 | QVQLQESGGGLVQAGGSLRQSYAASGYIFPSLAMGWYRQAPGKEREFVAAIGRGSTNNYEDSVKGRFTISRDNAKNTAYQQMNRLKPEDTAVYYCAAAASPLTRDLYWGQGTQVTVSS | low polyreactivity
31 | QVQLQESGGGLVQAGGSLRQSYAASGYIFPSLAMGWYRQAPGKESEFVAAIGRGSTNNYADSVKGRFTISRDNAKNTAYQQMNSLKPEDTAVYYCAAAASPLTRHLYWGQGTQVTVSS | low polyreactivity
32 | QVQLQESGGGLVQAGGSLRQSYAASGYIFPYLAMGWYRQAPGKEREFVAAIGRGSTNNYADSVKGRFTISRDNAKNTAYQQMNSLKPEDTAVYYCAGAASPLTRHLYWGQGNQVTVSS | low polyreactivity
33 | QVQLQESGGGLVQAGGSLRRSCAASGSIFSHWAMGWYRQTPGKERELVASITAGGNTNYADSVKGRFTISRDNAKNTVYLPMDSLKPEDTAVYYCAADGYYGAWDLEYYYWGQGTQVTVSS | low polyreactivity
34 | QVQLQESGGGLVQAGGSMRLSCAASGSISELRPMGWYRQAPCKQRELDAGISTGGSTNYADSVKGRFTISRDNAKNTVYLQMNSLKPEDTAVYYCASASYGEGTYDYWGQGTQVTVRS | high polyreactivity
35 | QVQLQESGGGLVQAGGSPRLSCAASDNIFPDSVMCWYRQAPGKERELVATIGFGATTNYADSVKGRFTISRDNAKNTVYLQMNSLKPEDTAVYYCAADPLIYEYFCYWGQGSQVTVSS | low polyreactivity
36 | QVQLQESGGGLVQAGGSQRLSCAASGYIFYFQYMGWYRQAPGKEREFVAAISDGANTNYADSVKGRFTISRDNAKNTEYLQMNSLKPEDTAVYYCAVYADEKYYYIYWGQGTQVTVSS | low polyreactivity
37 | QVQLQESGGGLVQAGGTITLGYYMGWYRQAPGKEREFVAGIDTGAITYYADSVKGRFTNSRDNAKNTVYLQMNSLKPEDTAVYYCAAIQTHTYAHSYCGQGTQVTVSS | high polyreactivity
38 | QVQLQESGGGLVQAGGTLRLSCAASGSIYDDTYMGWYRQAPGKERELVATIDSGSTTNYADSVKGRITISRDNAKKTVYLQMNSLKPEDTAVYYCAAADSHIDYFDYWGQGTQVTVSS | low polyreactivity
39 | QVQLQESGGGLVQAGGTLRLSCAVSGTIFFPLDMGWYRQAPGREREYVAAIAEGTSTYYADSVKGRFTISRDNAKNTVFPQMYSLKPEDTAVYYCAAYRSTPQQFHYWGQGTQVTVSS | high polyreactivity
40 | QVQLQESGGGLVQARGSLRLSCAASGYISHADEMGWYRQAPGKEHELVASFRNGGSTNYADSVKGRFTISRDNAKNTVYLQMNSLKSEDTAVYYCAAWTGQVDIHSYWCQGTQVTVSS | low polyreactivity
41 | QVQLQESGGGLVQASGSIFHEPNMCWYRQAPGKERELVAGISSGANTYYADSVKGRFTISRDNAKNTVYLQMNSLKPEDTAVYHCAVVVHLYTELRYWGQDTQVTVSS | high polyreactivity
42 | QVQLQESGGGLVQASGSLRLSCASSGNIFPDYVMAWYRLAPGKEREFVANITGGSTTNYADSVKGRFTISRDNAKNTVDLQMNSLTPEDTAVYYCAVNFGTVVLYLYWGQGTQVSVSS | high polyreactivity
43 | QVQLQESGGGLVQEGGSLRLSCAASGNISPPADMGWYRPAPGKERELVASIGTGGTTNYADSVKGRFTISRDNAKNTVYLQMNSLKPDDTAVYYCAAVRYEYNPYDYWGQGTQVTVSS | low polyreactivity
44 | QVQLQESGGGLVQEGGSLRLSCAASGNISPPADMGWYRQAHGKERELVASIGTGGTTNYADSVKGRFTISRDNAKNSVYLQMNSLKPDDTAVYYCAAVRYEYNPYDYWGQGTQVTVSS | low polyreactivity
